Reference: patent US10064939B2, “Combination therapy using c-Met inhibitor and IGF-1R inhibitor for c-Met inhibitor resistant cancers” (Samsung Electronics Co., Ltd., priority 2014, dated 2018)

Tests used:
[1] = system: MKN45 re#24 gastric cancer cells; assay: Cell proliferation, CellTiter Glo assay, anti-c-Met antibody resistance induced cell line MKN45 re#24; type: cell-based; conditions: 72 hours; for cell proliferation inhibition effect: single treatment: L3-1Y/IgG2 (2 μg/ml) only or linsitinib (10 uM) only, FIG. 8
Method: (§1) In particular, in order to obtain anti-c-Met antibody resistant MKN45 gastric cancer cells, MKN45 gastric cancer cells were administered with L3-1Y/IgG2 for at least 3 months by increasing the administration concentration. The amount of L3-1Y/IgG2 administered was increased from 1 μg/ml to 10 μg/ml, until resistance to L3-1Y/IgG2 is induced. The obtained L3-1Y/IgG2 resistant clones were named as MKN45re#1 and MKN45re#24, respectively.
(§2) In order to confirm the acquisition of resistance to L3-1Y/IgG2, the prepared L3-1Y/IgG2 resistant clones (MKN45 re#1 and MKN45 re#24) and MKN45 with no resistance were administered with various concentrations of L3-1Y/IgG2 (see FIG. 9). 72 hours after the antibody administration, the number of living cells was measured through CellTiter Glo assay (Promega, G7573).
(§3) The prepared L3-1Y/IgG2 resistance induced cell lines MKN45re#1 and MKN45re#24 were co-administered with L3-1Y/IgG2 and an IGF-1R inhibitor, to examine changes in cell proliferation of the L3-1Y/IgG2 resistance induced cell lines. Each of the L3-1Y/IgG2 resistant MKN45re#1 and MKN45re#24 cell lines was seeded on a 96-well plate at the amount of 10000 cells/well (medium: RPMI (GIBCO); culture conditions: 5% CO2 and 37° C.), and on the next day, treated with L3-1Y/IgG2 (2 μg/ml) and linsitinib (10 uM) together. 72 hours after the co-treatment, the number of living cells was counted by CellTiter Glo assay (Promega, G7573). For comparison, the same experiments were conducted using a control group with no treatment of L3-1Y/IgG or linsitinib, a group treated with L3-1Y/IgG (2 μg/ml) only, and a group treated with linsitinib (10 uM) only.

[2] = system: MKN45 re#1 gastric cancer cells; assay: Cell proliferation, CellTiter Glo assay, anti-c-Met antibody resistance induced cell line MKN45 re#1; type: cell-based; conditions: 72 hours; for cell proliferation inhibition effect: single treatment: L3-1Y/IgG2 (2 μg/ml) only or linsitinib (10 uM) only, FIG. 7
Method: as §1, §2, §3

MKN45 cells = assay: Cell proliferation, non-resistant MKN45 cells; type: cell-based
Method: as §2

SNU-668 cell line = assay: Anticancer effect of anti-c-Met antibody used alone, SNU-668; type: cell-based
SNU-5 cell line = assay: Anticancer effect of anti-c-Met antibody used alone, SNU-5; type: cell-based
Hs746T cell line = assay: Anticancer effect of anti-c-Met antibody used alone, Hs746T; type: cell-based
YCC-11 cell line = assay: Anticancer effect of anti-c-Met antibody used alone, YCC-11; type: cell-based
c-Met = c-Met (Homo sapiens, UniProt P08581); assay: Specificity of expressed scFv to c-Met; type: binding; conditions: after expression
Description: For use in constructing an scFv of the huAbF46 antibody from the heavy and light chain variable regions of the huAbF46 antibody, a gene was designed to have the structure of “VH-linker-VL” for each of the heavy and the light chain variable region, with the linker including the amino acid sequence “[…]” (SEQ ID NO: 54). A polynucleotide sequence (SEQ ID NO: 55) encoding the designed scFv of huAbF46 was synthesized in Bioneer and an expression vector for the polynucleotide had the nucleotide sequence of SEQ ID NO: 56.

[3] = various, increasing concentrations of L3-1Y/IgG2, FIG. 9

Sequence of c-Met (P08581 25-1390): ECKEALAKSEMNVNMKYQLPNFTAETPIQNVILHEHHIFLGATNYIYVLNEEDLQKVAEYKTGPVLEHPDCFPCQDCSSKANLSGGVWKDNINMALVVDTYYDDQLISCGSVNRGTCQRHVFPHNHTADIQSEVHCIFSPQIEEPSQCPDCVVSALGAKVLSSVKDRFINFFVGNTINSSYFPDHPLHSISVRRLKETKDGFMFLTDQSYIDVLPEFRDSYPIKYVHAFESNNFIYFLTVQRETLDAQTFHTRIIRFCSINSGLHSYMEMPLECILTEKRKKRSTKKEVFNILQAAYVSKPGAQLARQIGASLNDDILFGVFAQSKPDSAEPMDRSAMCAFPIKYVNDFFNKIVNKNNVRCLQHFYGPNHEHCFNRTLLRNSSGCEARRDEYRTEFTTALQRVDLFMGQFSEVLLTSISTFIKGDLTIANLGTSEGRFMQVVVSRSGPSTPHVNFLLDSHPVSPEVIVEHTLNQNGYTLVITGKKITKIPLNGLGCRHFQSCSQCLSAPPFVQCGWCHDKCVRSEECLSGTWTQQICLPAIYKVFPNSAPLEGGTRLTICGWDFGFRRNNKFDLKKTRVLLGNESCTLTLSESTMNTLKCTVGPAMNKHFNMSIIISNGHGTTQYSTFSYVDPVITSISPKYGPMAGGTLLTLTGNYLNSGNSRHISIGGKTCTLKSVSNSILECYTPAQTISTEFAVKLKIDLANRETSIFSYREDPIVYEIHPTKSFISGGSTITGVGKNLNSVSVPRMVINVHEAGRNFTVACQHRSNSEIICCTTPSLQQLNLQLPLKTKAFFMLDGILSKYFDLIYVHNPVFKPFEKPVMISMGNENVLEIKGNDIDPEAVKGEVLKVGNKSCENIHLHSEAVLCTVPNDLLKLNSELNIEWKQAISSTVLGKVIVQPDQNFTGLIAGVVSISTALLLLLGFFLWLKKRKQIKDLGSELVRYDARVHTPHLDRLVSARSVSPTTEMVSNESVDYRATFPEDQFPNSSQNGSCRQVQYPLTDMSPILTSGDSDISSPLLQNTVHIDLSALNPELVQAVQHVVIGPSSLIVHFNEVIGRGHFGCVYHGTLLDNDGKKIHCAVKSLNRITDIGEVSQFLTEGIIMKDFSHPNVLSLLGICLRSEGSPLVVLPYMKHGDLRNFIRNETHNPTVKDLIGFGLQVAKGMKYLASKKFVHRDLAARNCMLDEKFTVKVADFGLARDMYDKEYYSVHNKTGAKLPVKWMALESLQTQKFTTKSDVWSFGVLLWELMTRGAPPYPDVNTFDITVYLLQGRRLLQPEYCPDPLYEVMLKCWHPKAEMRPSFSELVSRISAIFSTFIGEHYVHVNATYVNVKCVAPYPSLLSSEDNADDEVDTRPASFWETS

Molecule	cell proliferation inhibition effect [1]	cell proliferation inhibition effect [2]	effect (cancer cell proliferation inhibition effect) when administered alone (MKN45 cells)	proliferation (number of living cells) [1, 3]	anticancer effect when used alone (SNU-668 cell line)	proliferation (number of living cells) [2, 3]	anticancer effect when used alone (SNU-5 cell line)	anticancer effect when used alone (Hs746T cell line)	anticancer effect when used alone (YCC-11 cell line)	specificity to c-Met (c-Met)
CC1(O)CC(c2nc(-c3ccc4ccc(-c5ccccc5)nc4c3)c3c(N)nccn23)C1 (stereo not drawn) [linsitinib, 3-[8-Amino-1-(2-phenyl-7-quinolyl)imidazo[1,5-a]pyrazin-3-yl]-1-methyl-cyclobutanol, reference compound]	no cell proliferation inhibition effect	no cell proliferation inhibition effect	–	–	–	–	–	–	–	–
L3-1Y/IgG2: anti-c-Met antibody: huAbF46-H4-A1 variable regions, human IgG2 hinge and constant region, human kappa light chain with His36Tyr (antibody) heavy: EVQLVESGGGLVQPGGSLRLSCAASGFTFTDYYMSWVRQAPGKGLEWLGFIRNKANGYTTEYSASVKGRFTISRDNSKNTLYLQMNSLRAEDTAVYYCARDNWFAYWGQGTLVTVSSASTKGPSVFPLAPCSRSTSESTAALGCLVKDYFPEPVTVSWNSGALTSGVHTFPAVLQSSGLYSLSSVVTVPSSNFGTQTYTCNVDHKPSNTKVDKTVERKCCVECPPCPAPPVAGPSVFLFPPKPKDTLMISRTPEVTCVVVDVSHEDPEVQFNWYVDGVEVHNAKTKPREEQFNSTFRVVSVLTVVHQDWLNGKEYKCKVSNKGLPAPIEKTISKTKGQPREPQVYTLPPSREEMTKNQVSLTCLVKGFYPSDIAVEWESNGQPENNYKTTPPMLDSDGSFFLYSKLTVDKSRWQQGNVFSCSVMHEALHNHYTQKSLSLSPGK light: DIQMTQSPSSLSASVGDRVTITCKSSQSLLASGNQNNYLAWYQQKPGKAPKMLIIWASTRVSGVPSRFSGSGSGTDFTLTISSLQPEDFATYYCQQSYSRPYTFGQGTKVEIKRTVAAPSVFIFPPSDEQLKSGTASVVCLLNNFYPREAKVQWKVDNALQSGNSQESVTEQDSKDSTYSLSSTLTLSKADYEKHKVYACEVTHQGLSSPVTKSFNRGEC	no cell proliferation inhibition effect	no cell proliferation inhibition effect	exhibits its effect	not inhibited	does not exhibit anticancer effect	not inhibited	exhibits anticancer effect	exhibits anticancer effect	does not exhibit anticancer effect	–
scFv of huAbF46: scFv of structure VH-linker-VL from heavy and light chain variable regions of huAbF46 (protein) scFv: EVQLVESGGGLVQPGGSLRLSCAASGFTFTDYYMSWVRQAPGKGLEWLGFIRNKANGYTTEYSASVKGRFTISRDNSKNTLYLQMNSLRAEDTAVYYCARDNWFAYWGQGTLVTVSSGLGGLGGGGSGGGGSGGSSGVGSDIQMTQSPSSLSASVGDRVTITCKSSQSLLASGNQNNYLAWHQQKPGKAPKMLIIWASTRVSGVPSRFSGSGSGTDFTLTISSLQPEDFATYYCQQSYSAPLTFGQGTKVEIKR	–	–	–	–	–	–	–	–	–	exhibit specificity to c-Met
